Data reported in PMC2897767, “Two Distinct Mechanisms for Actin Capping Protein Regulation—Steric and Allosteric Inhibition” (PLoS Biology, 2010).
Read-outs that look alike come from different tables or passages of the source.

What was measured:
[1] = test system: CP (β) D67N; experiment: SPR binding of mutant CP to immobilized GST-CD56 / GST-CA92; parameters: species or system chicken; conditions: analyte CP (β) D67N, 20°C, pH 7.0
Method: (§1) Expression vectors for chicken CPfull and CPΔβC were constructed in pETDuet-1 by PCR, using pET-3d/CP [38] as the template. CP was expressed in E. coli Rosetta2 (DE3) and was purified as described. V-1 (human), expressed in E. coli Rosetta2 (DE3) as a GST-fusion protein, was affinity-purified and the tag was removed. Synthetic peptides derived from CARMIL proteins were obtained from Invitrogen. For crystallization, CP was incubated with a 1.2–2.0-fold molar excess of V-1 or CARMIL peptides at 4°C for 2 h, followed by gel filtration to purify the complexes. Expression vectors for the GST-CA constructs were prepared from the mouse cDNA clone as previously described. Vectors for GST-CD fragments were constructed by PCR cloning using a human whole brain cDNA library (Clontech) as the template. Amplified DNA fragments were cloned into pGEX-6P-1. GST-fusion proteins were expressed in E. coli Rosetta2 (DE3) cells and affinity-purified using glutathione sepharose resin. Mutations were introduced using a Quikchange mutagenesis kit (Stratagene). Actin was prepared from rabbit skeletal muscle, as previously described, and was further purified by gel filtration chromatography. Pyrene labeled-actin was prepared as described. Spectrin-actin seeds were prepared from rabbit red blood cells, as previously described.
(§2) The binding affinities of CP for V-1 or CARMIL proteins were evaluated by surface plasmon resonance measurements with Biacore 3000 or Biacore 2000 instruments (GE Healthcare). GST-fusion proteins (GST-V-1, GST-CA, or GST-CD) were immobilized onto a CM5 sensor chip up to 200 RU (response units; 200 pg/mm^2) via anti-GST antibodies. CP at various concentrations in running buffer (50 mM KCl, 1 mM MgCl2, 0.005% Tween-20, 10 mM imidazole, pH 7.0) was perfused over the chip at 20°C, at a flow rate of 20 µl/min. Response curves were obtained by subtracting the background signal generated simultaneously on a control flow cell with immobilized GST. To measure the effect of the CARMIL peptides on the facilitation of CP/V-1 dissociation (in Figure 11C and 11D), we used the “co-inject” mode for successive injections of the peptides followed by CP. Kinetic parameters were determined by fitting the sensorgrams to a simple 1∶1 binding model, using the Bia-evaluation software (GE Healthcare). KD values were obtained from the kinetic rate constants. […] KD values were evaluated by plotting these values against the concentrations of CP.

[2] = test system: CP (β) Y64F; experiment: as above; parameters: species or system chicken; conditions: analyte CP (β) Y64F, 20°C, pH 7.0
Method: as §1, §2

[3] = test system: CP (β) D63N; experiment: as above; parameters: species or system chicken; conditions: analyte CP (β) D63N, 20°C, pH 7.0
Method: as §1, §2

[4] = test system: CP (β) D44N; experiment: as above; parameters: species or system chicken; conditions: analyte CP (β) D44N, 20°C, pH 7.0
Method: as §1, §2

[5] = test system: CPfull (wild type CP); experiment: Actin polymerization assay (barbed end elongation from spectrin-actin seeds): inhibition of CP capping; type: biochemical, chicken; conditions: actin 1.2 µM (5% pyrene-labeled), 7.2 nM CPfull, 25°C (Figure 9F)
Method: (A) Superposition of the C-termini of the peptides. CD Phe505 and CK Arg169 are shown as stick models. The conserved proline at the C-terminus of the motifs is shown as balls. (B) CD2AP constructs used for biochemical assays. (C) CARMIL constructs used for biochemical assays. […] Actin (1.2 µM, 5% pyrene-labeled) was polymerized from spectrin-actin seeds in the presence of 3.6 nM CPfull (D), 10 nM CPβΔC (E), or 7.2 nM CPfull (F) with various concentrations of CARMIL peptides or GST-CA constructs.
The barbed end elongation assay from spectrin-actin seeds was performed essentially as previously described. Briefly, G-actin was stored in G-buffer (0.2 mM CaCl2, 0.2 mM ATP, 0.5 mM DTT and 10 mM imidazole, pH 7.0). At 90 s prior to polymerization, the Ca^2+ was replaced with Mg^2+, by the addition of 1/10 volume of 10 mM EGTA and 1 mM MgCl2 to G-actin. […] Actin polymerization was measured by monitoring the pyrene-actin fluorescence (excitation 370 nm; emission 410 nm) at 25°C.
(0.16 MB TIF) Click here for additional data file.

[6] = test system: CP; experiment: SPR binding of CP to immobilized GST-CD2AP / GST-CARMIL fragments; parameters: species or system chicken; conditions: 20°C; for kon / koff: SPR (Biacore), CP perfused, 1:1 binding model; for kon: GST-fusion immobilized via anti-GST antibody on CM5 chip, 50 mM KCl, 1 mM MgCl2, 0.005% Tween-20, 10 mM imidazole pH 7.0; for koff: GST-fusion immobilized
Method: as §1, §2

[7] = target: CP; conditions: ref Fujiwara, et al.; cited from earlier work
From the text: We tested the importance of the C-terminal flanking regions of the CP-binding motif using a binding assay (Table 2; the constructs used for the measurement are shown in Figure 9B). […] In the second CP binding site in the CP/CBR115 complex, human CARMIL Val1034 (corresponding to mouse CA1038), which is missing in GST-76, forms multiple interactions with CP α-subunit residues. Thus, the absence of this key valine in GST-CA76 results in the lower CP binding affinity compared with the full active CARMIL fragments.

[8] = test system: CP; conditions: estimated, cited from earlier work
From the text: How do CARMIL proteins inhibit the capping activity of CP in an allosteric manner? […] We propose that CARMIL proteins inhibit CP in a similar manner (Figure 13C); CARMIL proteins limit the conformational distribution of CP to ...

B1: GST-CA92: GST fusion of mouse CARMIL residues 962–1053 (protein)
chain: FPSVRQEKRSSGLISELPSEEGRRLEHFTKLRPKRNKKQQPTQAAVCTISILPQDGEQNGLMGRVDEGVDEFFTKKVTKMDCKRSSSRSSDA
modifications: left off: GST, end not stated, kept
B1 showed a koff [1] greater than 0.1 s⁻¹, a Kon [2] of 460000 M⁻¹ s⁻¹ and a koff [2] of 0.0046 s⁻¹. The koff [3] was greater than 0.1 s⁻¹, the koff [4] was greater than 0.1 s⁻¹ and the “CP inhibitory activity of GST-CARMIL constructs” value [5] was “strongest CP inhibitory effect”. The kon [6] was 1.6e+06 M⁻¹ s⁻¹ and the koff ([6]; pH 7.0) was 0.0052 s⁻¹.

B2: GST-CA63: GST fusion of mouse CARMIL residues 962–1024 (protein)
chain: FPSVRQEKRSSGLISELPSEEGRRLEHFTKLRPKRNKKQQPTQAAVCTISILPQDGEQNGLMG
modifications: left off: GST, end not stated, kept
With B2 the koff ([6]; pH 7.0) was greater than 0.1 s⁻¹ and the “KD (in words)” value ([6]; SPR, pH 7.0) was “micromolar range”.

B3: mCAH3: mCAH3 fragment, mouse CARMIL residues 965-1038 (protein, UniProt Q6EDY6 965-1038, looked up, fragment)
chain: VRQEKRSSGLISELPSEEGRRLEHFTKLRPKRNKKQQPTQAAVCTISILPQDGEQNGLMGRVDEGVDEFFTKKV
For B3, the Kd [7] is given as roughly 1 nM.

B4: GST-CA76: GST fusion of mouse CARMIL residues 962–1037 (protein)
chain: FPSVRQEKRSSGLISELPSEEGRRLEHFTKLRPKRNKKQQPTQAAVCTISILPQDGEQNGLMGRVDEGVDEFFTKK
modifications: left off: GST, end not stated, kept
With B4 the kon [6] was 230000 M⁻¹ s⁻¹ and the koff ([6]; pH 7.0) was 0.019 s⁻¹.

B5: CARMIL: multi-domain protein (∼150 kDa) that binds CP and uncaps filaments (protein, UniProt Q6EDY6 1-1374, looked up)
F-actin-uncapping protein …: MTDESSDVPRELMESIKDVIGRKIKISVKKKVKLEVKGDRVENKVLVLTSCRAFLLSARIPSKLELTFSYLEIHGVICHKPAQMVVETEKCNMSMKMVSPEDVSEVLAHIGTCLRRIFPGLSPLRIMKKVSMEPSERLASLQALWDSQTLAEPGPCGGFSQMYACVCDWLGFSYKEEVQWDVDTIYLTQDTRELNLQDFSHLEHRDLIPIIAALEYNQWFTKLSSKDLKLSTDVCEQILRVVSRSNRLEELVLENAGLRIDFAQKLAGALAHNPNSGLHTINLAGNSLEDRGVSSLSIQFAKLPKGLKHLNLSKTSLSPKGVNSLCQSLSANPLTASTLTHLDLSGNALRGDDLSHMYNFLAQPNTIVHLDLSNTECSLEMVCSALLRGCLQCLAVLNLSRSVFSHRKGKEVPPSFKQFFSSSLALIQINLSGTKLSPEPLKALLLGLACNHSLKGVSLDLSNCELGHCLRSGGAQVLEGCIAEIHNITSLDISDNGLESDLSTLIVWLSKNRSIQHLALGKNFNNMKSKNLTPVLDNLVQMIQDEDSPLQSLSLADSKLKAEVTIIINALGSNTSLTKVDISGNGMGDMGAKMLAKALQINTKLRTVIWDKNNITAQGFQDIAVAMEKNYTLRFMPIPMYDAAQALKTNPEKTEEALQKIENYLLRNHETRKYLQEQAYRLQQGIVTSTTQQMIDRICVKVQDHLNSLRACGGDAIQEDLKAAERLMRDAKNSKTLLPNLYHVGGASWAGASGLSSSPIQETLESMAGEVTRVVDEQLKDLLESMVDAAETLCPNVMRKAHIRQDLIHASTEKISIPRTFVKNVLLEQSGIDILNKISEVKLTVASFLSDRIVDEILDSLSSSHRKLANHFSRLNKSLPQREDLEVELVEEKPVKRAILTVEDLTEVERLEDLDTCMMTPKSKRKSIHSRMLRPVSRAFEMEFDLDKALEEVPIHIEDPPFPSVRQEKRSSGLISELPSEEGRRLEHFTKLRPKRNKKQQPTQAAVCTISILPQDGEQNGLMGRVDEGVDEFFTKKVTKMDCKRSSSRSSDAHELGEGDEKKKRDSRRSGFLNLIKSRSRSERPPTVLMTEELSSPKGAMRSPPVDTTRKEIKAAEHNGAPDRTEEIKTPEPLEEGPAEEAGRAERSDSRGSPQGGRRYVQVMGSGLLAEMKAKQERRAACAQKKLGNDVISQDPSSPVSCNTERLEGGATVPKLQPGLPEARFGSGTPEKNAKAEPRVDGGCRSRSSSSMPTSPKPLLQSPKPSPSARPSIPQKPRTASRPEDTPDSPSGPSSPKVALLPPILKKVSSDKERDGQNSSQSSPRSFSQEASRRSWGPAQEYQEQKQRSSGKDGHQGSKCSDSGEEAEKEFIFV
For B5, the “affinity for barbed end-bound CP lower than for free CP” value ([8]; ref 23) is given as 10- to 100 fold and the “affinity for barbed end-bound CP lower than for free CP” value ([8]; ref 29) is given as 200 fold.
